The values that follow come from US7588893.

Experiment [1] has as its target poly-GT oligonucleotide tagged anti-TSH mouse monoclonal IgG. The experiment in a line: fluorescent microspheres on the poly-CA microspot carrying Poly-GT-Mouse IgG, confocal laser scanning, ex 488 / em 525.
In experiment [2] the target is poly-CT oligonucleotide tagged rabbit IgG. Nature of the experiment: fluorescent microspheres on the poly-GA microspot carrying Poly-CT-Rabbit IgG, confocal laser scanning, ex 488 / em 525; control 13.3 ± 0.5.
The target is the same in experiment [3]. The experiment in a line: fluorescent microspheres on the poly-GA microspot carrying Poly-CT-Rabbit IgG, confocal laser scanning, ex 568 / em 585.
The target of experiment [4] is poly-GT oligonucleotide tagged anti-TSH mouse monoclonal IgG. The experiment in a line: fluorescent microspheres on the poly-CA microspot carrying Poly-GT-Mouse IgG, confocal laser scanning, ex 568 / em 585; control 22.0 ± 0.2.

Consider “goat anti-mouse IgG (whole molecule) antibody conjugated yellow-green FLUOSPHERES”, for which the figures for the Yellow/Green Signal in experiment [1] and in experiment [2] were 101 and 16.9, respectively.

With “goat anti-rabbit IgG (whole molecule) antibody conjugated red FLUOSPHERES”, the Red Signal worked out at 99.8 in experiment [3] and 24 in experiment [4].
